In PMC5181682 (Nucleic Acids Research, 2016):

B3: Proliferating cell nuclear antigen (PCNA1) of Thermococcus kodakarensis (natural protein)
chain: MPFEVVFDGAKEFADLIATASNLIDEAAFKFTEEGISMRAMDPSRVVLIDLNLPESIFSKYEVEEPETIGINMDQFKKILKRGKAKDTLILRKGDENFLEITFEGTAKRTFRLPLIDVEELELELPELPFTAKVVLLGEVLKEGIKDASLVSDAIKFIAKENEFTMKAEGETNEVEIRLTLEDEGLLDLEVEEETKSAYGIRYLSDMVKGIGKADEVILRFGNEMPLQMEYMIRDEGRLTFLLAPRVEE

How the values were obtained:
[1] = target: B3; assay: crystal structure; PCNA with full length TIP, ratio about 1:1.2, hanging drop; well 1.2 M ammonium sulfate, 50 mM sodium citrate pH 4.0, 10% glycerol; 2.8 Å; details: both partners purified
[2] = target: the molecule itself; assay: SAXS; PCNA:TIP peptide complex at 6.4, 4.8, 4.1 and 2.1 mg/ml, purified by SEC, 50 mM Tris-HCl pH 7.3, 200 mM NaCl, room temperature; fit to a two-member ensemble (1:1 Model A and 2:2 Model C); 2:2 form to 1:1 complexes
[3] = target: B3; assay: crystal structure; PCNA with TIP peptide (residues 28-64); same space group as PCNA:TIP; 3.4 Å; details: both partners purified
[4] = target: B3; assay: crystal structure; PCNA with FEN-1 peptide, ratio about 1:5, sitting drop; well 2.8 M ammonium sulfate, 100 mM citric acid pH 5.3, 10% PEG 4000; 2.0 Å; details: both partners purified
[5] = target: the molecule itself; assay: SAXS; free PCNA in 50 mM Tris-HCl pH 7.3, 200 mM NaCl, room temperature; fit to the crystal structure PDB 3LX1

B1: TIP (Thermococcales inhibitor of PCNA), full length (natural protein, T. kodakarensis, UniProt Q5JH72 1-64, looked up)
chain: MDRKLDEFIGDATPKKVSKEKPVRRKKRLKPTSLDSFLPEEHINYFRDLRIGSKKIRNAKIEEL
binding result [1]: binds

B2: PCNA:TIP peptide complex (1:1) (complex)
chain: MPFEVVFDGAKEFADLIATASNLIDEAAFKFTEEGISMRAMDPSRVVLIDLNLPESIFSKYEVEEPETIGINMDQFKKILKRGKAKDTLILRKGDENFLEITFEGTAKRTFRLPLIDVEELELELPELPFTAKVVLLGEVLKEGIKDASLVSDAIKFIAKENEFTMKAEGETNEVEIRLTLEDEGLLDLEVEEETKSAYGIRYLSDMVKGIGKADEVILRFGNEMPLQMEYMIRDEGRLTFLLAPRVEE
peptide: RLKPTSLDSFLPEEHINYFRDLRIGSKKIRNAKIEEL
Kd [2]: ~100 µM | stoichiometry N [2]: 2

RLKPTSLDSFLPEEHINYFRDLRIGSKKIRNAKIEEL (peptide, UniProt Q5JH72 28-64, looked up) [TIP peptide (residues 28-64)]
binding result [3]: binds

KQRTLESWFGR (peptide, UniProt Q5JGN0 330-340, looked up) [flap endonuclease 1 (FEN-1) peptide (residues 330-340)]
binding result [4]: binds

B3
stoichiometry N [5]: 3
